From PMC2063866 (The Journal of Cell Biology, 2006)

Molecular target: Recombinant full-length WAVE2 tagged with GST at its COOH terminus (UniProt Q9Y6W5 1-498)
Test: dual polarization interferometry

Chain of Recombinant full-length WAVE2 tagged with GST at its COOH terminus (Q9Y6W5 whole entry): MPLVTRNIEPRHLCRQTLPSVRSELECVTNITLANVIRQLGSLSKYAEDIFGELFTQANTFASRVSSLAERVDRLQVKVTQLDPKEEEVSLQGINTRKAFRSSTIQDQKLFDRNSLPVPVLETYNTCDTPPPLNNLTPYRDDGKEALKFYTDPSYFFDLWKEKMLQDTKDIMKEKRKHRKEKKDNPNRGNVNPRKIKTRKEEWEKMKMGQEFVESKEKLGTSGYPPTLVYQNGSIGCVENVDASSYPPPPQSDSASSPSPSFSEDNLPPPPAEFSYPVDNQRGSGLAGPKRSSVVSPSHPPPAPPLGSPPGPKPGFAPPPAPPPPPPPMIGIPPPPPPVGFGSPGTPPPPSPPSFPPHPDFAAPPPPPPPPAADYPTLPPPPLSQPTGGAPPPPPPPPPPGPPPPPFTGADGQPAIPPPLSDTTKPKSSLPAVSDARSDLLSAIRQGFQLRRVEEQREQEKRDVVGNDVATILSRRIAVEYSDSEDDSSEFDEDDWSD

B1: Coiled-coil region of Abi1 (aa 6–124) (domain or fragment)
chain: MLLEEEIPSGKRALIESYQNLTRVADYCENNYIQATDKRKALEETKAYTTQSLASVAYQINALANNVLQLLDIQASQLRRMESSINHISQTVDIHKEKVARREIGILTTNKNTSRTHKI
- Kd: 600 nM
